± gives the uncertainty stated by the source.
Assay: self-splicing fitness, log relative to wild type (ln ratio); higher = more splicing; Tetrahymena group I intron in knt gene, E. coli kanamycin selection, DiMSum; sequences stand for … in CUCUCU…GGAGGGAAAAGUUAUCAGGCAUGCACCUGGUAGCUAGUCUUUAAACCAAUAGAUUGCAUCGGUUUAAAAGGCAAGACCGUCAAAUUGCGGGAAAGGGGUCAACAGCCGUUCAGUACCAAGUCUCAGGGGAAACUUUGAGAUGGCCUUGCAAAGGGUAUGGUAAUAAGCUGACGGACAUGGUCCUAACCACGCAGCCAAGUCCUAAGUCAACAGAUCUUCUGUUGAUAUGGAUGCAGUUCACAGACUAAAUGUCGGUCGGGGAAGAUGUAUUCUUCUCAUAAGAUAUAGUCGGACCUCUCCUUAAUGGGAGCUAGCGGAUGAAGUGAUGCAACACUGGAGCCGCUGGGAACUAAUUUGUAUGCGAAAGUAUAUUGAUUAGUUUUGGAGUACUCGUGGUCG
Procedure, shortened: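 Pooled colonies went to amplicon sequencing on an Illumina HiSeq 2500 after six replicate transformations. The plates were LB agar with 100 μg/mL carbenicillin, 50 μM IPTG and 0.2% rhamnose, with or without 25 μg/mL kanamycin, incubated overnight at 37°C or 30°C. The E. coli BL21(DE3) library had all eight P1ex-region intron nucleotides randomised, the intron placed in the knt kanamycin-resistance gene on pET-22b(+). DiMSum fitness is the error-weighted combination of replicate fold changes, kanamycin against none, normalised to wild type.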

| Sequence | self-splicing fitness (ln) (30 °C) | self-splicing fitness (ln) (37 °C) |
| --- | --- | --- |
| CGAUAGCAAUAUUACGAAAG | -0.907 ± 0.089 | -0.699 ± 0.12 |
| CACCAGCAAUAUUACGCAGC | -3.44 ± 0.16 | -1.77 ± 0.12 |
| CUCCAGCAAUAUUACGGUAU | -4.21 ± 0.22 | -3.58 ± 0.19 |
| CUGGAGCAAUAUUACGCAAU | -3.93 ± 0.33 | -2.08 ± 0.29 |
| GUAAAGCAAUAUUACGAUUC | 0.475 ± 0.08 | 0.115 ± 0.091 |
| GCCCAGCAAUAUUACGGGGC | -2.87 ± 0.15 | -2.73 ± 0.25 |
| UCUUAGCAAUAUUACGGAUG | -3.74 ± 0.28 | -1.76 ± 0.17 |
| CAGCAGCAAUAUUACGAUAC | -3.52 ± 0.33 | -3.45 ± 0.4 |
| GCGUAGCAAUAUUACGACUA | 0.106 ± 0.14 | 0.571 ± 0.14 |
| UGGGAGCAAUAUUACGGUGG | -2.67 ± 0.46 | – |
| UAAGAGCAAUAUUACGUUCU | -3.45 ± 0.28 | -1.55 ± 0.19 |
| GUAUAGCAAUAUUACGGAAC | -3.32 ± 0.15 | -1.77 ± 0.13 |
| UCACAGCAAUAUUACGUCCG | -1.21 ± 0.086 | -0.358 ± 0.098 |
| CUCUAGCAAUAUUACGAUAA | -3.29 ± 0.27 | -2 ± 0.24 |
| CUUAAGCAAUAUUACGGGCA | -3.03 ± 0.23 | -2.3 ± 0.25 |
| UUAUAGCAAUAUUACGAUAA | -0.51 ± 0.11 | -0.0656 ± 0.12 |
| CGCCAGCAAUAUUACGGACA | -0.882 ± 0.11 | -0.254 ± 0.11 |
| CCAUAGCAAUAUUACGUAGC | -2.52 ± 0.21 | -2.05 ± 0.47 |
| UUCUAGCAAUAUUACGUCAA | -1.21 ± 0.13 | -1.43 ± 0.16 |
| GUCUAGCAAUAUUACGCGCG | -1.36 ± 0.15 | -0.687 ± 0.14 |
| AUAGAGCAAUAUUACGAUGA | -2.14 ± 0.21 | -1.75 ± 0.29 |
| AUCUAGCAAUAUUACGCUAA | -2.07 ± 0.12 | -0.871 ± 0.12 |
| UUUUAGCAAUAUUACGGUUA | -1.54 ± 0.2 | 0.105 ± 0.13 |
| CUCUAGCAAUAUUACGAACG | -0.887 ± 0.097 | -0.112 ± 0.11 |

| Sequence | self-splicing fitness (ln) (30 °C) | self-splicing fitness (ln) (37 °C) |
| --- | --- | --- |
| UAUGAGCAAUAUUACGCCUG | -1.44 ± 0.14 | -1.57 ± 0.26 |
| GGGUAGCAAUAUUACGUCGG | -3.8 ± 0.2 | -1.68 ± 0.17 |
| GUACAGCAAUAUUACGACGG | -3.75 ± 0.22 | -2.89 ± 0.21 |
| UGUGAGCAAUAUUACGCGGU | -3.67 ± 0.37 | -0.807 ± 0.33 |
| UCGCAGCAAUAUUACGGACA | -1.38 ± 0.17 | -1.83 ± 0.14 |
| CGGCAGCAAUAUUACGGGGU | -3.58 ± 0.19 | -3.28 ± 0.31 |
| AGAAAGCAAUAUUACGGAGA | -3 ± 0.22 | -2.79 ± 0.23 |
| CCGGAGCAAUAUUACGCCGG | – | -3.09 ± 0.28 |
| AAGUAGCAAUAUUACGAAAG | -2.94 ± 0.27 | -2.17 ± 0.25 |
| ACUUAGCAAUAUUACGAUGG | -2.19 ± 0.099 | -1.16 ± 0.12 |
| GGGUAGCAAUAUUACGACCA | -0.444 ± 0.23 | -0.732 ± 0.42 |
| UAUUAGCAAUAUUACGCGAA | -2.22 ± 0.29 | -0.951 ± 0.17 |
| GAUCAGCAAUAUUACGCUCU | -1.3 ± 0.12 | -0.735 ± 0.15 |
| GUCGAGCAAUAUUACGACGA | -3.05 ± 0.35 | -1.28 ± 0.21 |
| CCUUAGCAAUAUUACGAUUU | -4.25 ± 0.42 | -2.44 ± 0.35 |
| GAAAAGCAAUAUUACGACGC | -0.132 ± 0.069 | 0.493 ± 0.093 |
| UGCGAGCAAUAUUACGACUC | -2.71 ± 0.27 | -2.25 ± 0.25 |
| UCCUAGCAAUAUUACGGAUA | -2.52 ± 0.2 | -0.547 ± 0.13 |
| UCCUAGCAAUAUUACGUUUU | -3.41 ± 0.21 | -2.69 ± 0.2 |
| AGGUAGCAAUAUUACGCUGU | -3.789 ± 0.033 | -2.97 ± 0.043 |
| GAAAAGCAAUAUUACGCGGU | -3.4 ± 0.21 | -1.21 ± 0.16 |
| GCCAAGCAAUAUUACGACCA | -1.48 ± 0.17 | -1.36 ± 0.19 |
| UCACAGCAAUAUUACGGAAU | -4.32 ± 0.25 | -2.97 ± 0.22 |
| UAUGAGCAAUAUUACGUAAC | -2.86 ± 0.36 | – |

From the supplement of paper PMC7877785
